The text below walks through data of US20160297892A1 (Novo Nordisk, published 2016).

Common to all, as to experiment: ELISA, calcium-free TBS;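 note: binding of mouse antibodies detected by ELISA with an HRP-conjugated goat anti-mouse IgG secondary and TMB substrate development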
The target of test [1] is T1, Gla-domain deleted recombinant human Protein S (human, UniProt P07225 114-676).
T1 construct: also called hPS-dGla; desGla human Protein S
T1 sequence: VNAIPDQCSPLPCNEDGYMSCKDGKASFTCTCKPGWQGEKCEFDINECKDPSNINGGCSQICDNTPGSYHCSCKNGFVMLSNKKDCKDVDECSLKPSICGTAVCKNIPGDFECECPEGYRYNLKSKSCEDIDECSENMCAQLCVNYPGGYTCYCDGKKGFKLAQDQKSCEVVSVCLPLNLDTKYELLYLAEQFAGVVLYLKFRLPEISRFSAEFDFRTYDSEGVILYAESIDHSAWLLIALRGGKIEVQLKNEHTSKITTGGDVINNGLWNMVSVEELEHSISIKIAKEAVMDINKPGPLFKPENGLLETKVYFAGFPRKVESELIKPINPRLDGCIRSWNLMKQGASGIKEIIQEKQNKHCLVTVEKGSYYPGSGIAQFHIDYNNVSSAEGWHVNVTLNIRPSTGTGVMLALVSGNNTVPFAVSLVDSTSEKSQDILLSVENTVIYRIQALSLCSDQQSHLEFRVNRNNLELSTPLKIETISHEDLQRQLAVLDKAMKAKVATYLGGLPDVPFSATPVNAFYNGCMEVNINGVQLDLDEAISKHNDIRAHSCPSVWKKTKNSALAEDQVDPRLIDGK
Description: (§1) After incubation and washing a HRP-labelled goat-anti-mouse IgG secondary antibody (Jackson) was added and the ELISA was developed after incubation and wash by addition of 3,3′,5,5′-Tetramethylbenzidine.

In test [2] the target is T2, EGF1-4 domains of human Protein S with C-terminal HPC4 tag (human, UniProt P07225 114-286, partial hydroxylation of Asn or Asp in the EGF domains (detected by MS)).
T2 construct: also called hEGF1-4; human Protein S EGF1-4
T2 sequence: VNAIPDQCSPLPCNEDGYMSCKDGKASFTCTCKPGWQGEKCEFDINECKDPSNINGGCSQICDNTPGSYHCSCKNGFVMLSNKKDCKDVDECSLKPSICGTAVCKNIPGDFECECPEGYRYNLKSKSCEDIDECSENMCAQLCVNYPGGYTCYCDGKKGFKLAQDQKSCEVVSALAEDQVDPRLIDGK
Description: as §1

The target in test [3] is T3, human Protein S (plasma derived) (human, UniProt P07225 42-676).
T3 construct: Bought plasma-derived human Protein S (Haematologic Technologies or Enzyme Research Laboratories); also called Plasma PS; free Protein S
T3 sequence: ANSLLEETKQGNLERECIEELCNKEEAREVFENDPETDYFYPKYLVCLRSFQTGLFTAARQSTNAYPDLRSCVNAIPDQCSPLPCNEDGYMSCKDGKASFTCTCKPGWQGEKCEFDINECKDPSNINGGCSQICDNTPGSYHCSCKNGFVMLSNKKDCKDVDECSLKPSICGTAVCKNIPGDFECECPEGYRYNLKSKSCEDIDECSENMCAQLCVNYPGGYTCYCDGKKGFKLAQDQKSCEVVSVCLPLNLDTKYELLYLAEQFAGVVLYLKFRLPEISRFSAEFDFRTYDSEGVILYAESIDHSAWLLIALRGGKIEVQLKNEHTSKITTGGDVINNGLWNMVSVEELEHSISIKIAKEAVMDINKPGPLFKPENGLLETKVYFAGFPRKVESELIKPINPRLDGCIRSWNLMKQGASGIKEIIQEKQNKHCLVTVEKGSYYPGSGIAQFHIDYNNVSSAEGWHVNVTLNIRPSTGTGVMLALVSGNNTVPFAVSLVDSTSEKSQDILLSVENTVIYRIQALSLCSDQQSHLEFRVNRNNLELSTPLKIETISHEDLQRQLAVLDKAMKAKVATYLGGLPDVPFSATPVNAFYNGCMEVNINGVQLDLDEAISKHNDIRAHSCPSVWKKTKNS
Description: as §1

The target in test [4] is T4, EGF domain 3 and 4 of recombinant human Protein S (human, UniProt P07225 201-286, limits assumed).
T4 construct: domain: EGF domain 3 and 4; also called hEGF3-4
T4 sequence (looked up): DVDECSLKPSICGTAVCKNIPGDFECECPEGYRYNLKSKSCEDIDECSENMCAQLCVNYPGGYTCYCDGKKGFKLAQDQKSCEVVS
Description: as §1

Test [5] addresses T5, EGF domain 1 and 2 of recombinant human Protein S (human, UniProt P07225 114-200, limits assumed).
T5 construct: domain: EGF domain 1 and 2; also called hEGF1-2
T5 sequence (looked up): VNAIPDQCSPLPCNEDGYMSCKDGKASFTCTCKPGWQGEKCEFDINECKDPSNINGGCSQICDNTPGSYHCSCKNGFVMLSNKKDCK
Description: as §1

B1: M-hProtS-2F188A1 monoclonal antibody (antibody, mouse IgG1, V domains shown)
VH: QVQLQQPGAELVRPGTSVKLSCKASGYTVTSYWMNWIKQRPEQGLEWIGRIDPNDSETLYNQKFKDKVILTVDKSSSTVYIQLSSLTSEDSAVYYCARWAGSGYAMDYWGQGTSVTVSS
VL: QIVLTQSPALLSASPGEKVTMTCSASSSVSYMYWYQQKPGSSPKPWIYVTSNLASGVPARFSGSGSGTSYSLTISSMEAEDAATYYCHQWSSDPYTFGGGTKLEIRR
notes: Purified from hybridoma supernatant; mouse IgG1, kappa
As to B1, the binding result in test [1] was “binds”; in test [2] it was “binds”; in test [3], “binds”; in test [4] it was “no binding”.

B2: M-hProtS-6F216A3 (mAb 0914) monoclonal antibody (antibody, V domains shown)
VH: QVQLQQPGAELVRPGASVKLSCKASGYTFTSYWINWVKQRPEQGLEWIGRIDPYDSETHYNQKFKDKAILTVDKSSSTAYMQLSSLTSEDSAVYYCARWGGSGYAMDYWGQGTSVTVSS
VL: QIVLSQSPAILSASPGEKVTMTCRASSSVSYMYWYQQKPGSSPKPWIYATSNLASGVPARFSGSGSGTSYSLTISRVEAEDAATYYCQQWSSIPPTFGGGTKLEIKR
notes: Mouse IgG1, kappa
Regarding B2, the binding result in test [4] is given as “no binding”.

B3: M-hProtS-2F380A1 monoclonal antibody (antibody, mouse IgG1, V domains shown)
VH: EVKLEESGGGLVQPGGSMKLSCAASGFTFSDAWMDWVRQSPEKGLEWVAEVRSKADNHATYYAESVKGRFTISRDDSKSAVYLQMNSLRPEDTGIYYCTLTTAFLFDSWGQGTTLTVSS
VL: QIALTQSPAIMSASPGEKVTMTCSVNSSVSYMHWYQQKPGSSPRLWIYDTSNLVSGVPGRFSGSGSGTSYSLTLSSMEAEDAATYYCQQYSGYLYTFGGGTKLEIKR
notes: as for B1
Take B3: the binding result in test [1] is “binds”; in test [2], “binds”; in test [3], “binds”; in test [4] it was “no binding”.

B4: M-hProtS-6F265A1 monoclonal antibody (antibody, mouse IgG1, V domains shown)
VH: QVQLKESGPGLVAPSQSLSITCTVSGFSLTSYGVHWVRQPPGKGLGWLGVIWAGGRTDYNSALMSRLSISKDNSKSQVFLKMNSLQTDDTAIYYCARDYGNYNYAMDYWGQGISVTVSS
VL: ETTVTQSPASLSMAIGEKVTIRCITSTDIDDDVNWYQQKPGEPPKLLISEGNILRPGVPSRFSSSGYGTDFVFSIENMLSEDVGDYYCLQSDTLPTFGGGTKLEIKR
notes: Tested as antibody purified from hybridoma supernatant; mouse IgG1, kappa
For the molecule B4, the results for the binding result in test [1], in test [2] and in test [4] were “binds”, “binds” and “no binding”, respectively.

B5: M-hProtS-3F38A2 monoclonal antibody (antibody, mouse IgG1, V domains shown)
VH: EVLLQQSGPELVKPGASVKIPCKASGYTFTDYNMDWVKQSHGKSLEWIGDINPNNGDTFYNQKFKGKATLTVDKSSSTAYMELRSLTSEDTAVYYCARSEIFTTAPDYGMGYWGQGTSVTVSS
VL: ENVLTQSPAIMSASPGEKVTMTCRASSSVSSSYLHWYQQRSGASPKLWIYGTSNLASGVPARFSGSGSGTSYSLTISSVEAEDAATYYCQQYSGYPRTFGGGTKLEIKR
notes: as for B1
On to B5, for which the binding result in test [1] is “binds”; in test [2] it was “binds”; in test [3], “binds”; in test [5] it was “no binding”; in test [4] it was “no binding”.

B6: M-hProtS-3F62A5 monoclonal antibody (antibody, mouse IgG1, V domains shown)
VH: EVLLQQSGPELVKPGASVKITCKASGYTFTDYNMDWVKQSHGKSLEWIGDIDPNNGGTIYNQEFTGKATLTVDTSSSTAYMELRSLTSEDTAVYYCVRSEIFTTAPDYGVDYWGQGTSVTVSS
VL: ENVLTQSPAIMSASPGEKVTMTCRASSSVSSSYLHWYRQKSGASPKLWIYSTSNLASGVPARFSGSGSGTSYSLTISRVEAEDAATYYCQQYSGYPRTFGGGTKVEIKR
notes: as for B1
In the case of B6, the binding result in test [1] is on record as “binds”; in test [2], “binds”; in test [3], “binds”; in test [5] it was “no binding”; in test [4], “no binding”.

B7: M-hProtS-6F206A1 monoclonal antibody (antibody, mouse IgG1, V domains shown)
VH: QVQLQQSGAEMVRPGSSVKISCKASGYAFSSHWMNWVKQRPGQGLEWIGQIYPGDGDTNYNGKFRGKAIVTADTSSSTAYLQLSSLTSEDTAVFFCAPGYHGTSYWFAYWGQGTLVTVSA
VL: DIQMSQSPSSLSASLGDTVTITCHASQNINIWLSWYQQKPGNILTLLIYKASNLYTGVPSRFSGSGSGTDFTLTISSLQPEDIATYYCQQGQSFPLTFGTGTRLELKR
notes: as for B1
Regarding B7, the binding result in test [1] was “binds”; in test [2] it was “binds”; in test [3] it was “binds”; in test [4], “no binding”.

B8: M-hProtS-6F120A1 monoclonal antibody (antibody, mouse IgG1, V domains shown)
VH: EIQLQQSGPELVKPGASVKVSCKASGYSFTDYNMYWVKQSHGKSLEWIGYIDPYNGGTSYNQKFKGKATLTVDKSSSTAFMHLNSLTSEDSAVYYCARERDYWYFDVRGAGTTVTVSS
VL: DIVLTQSPASLAVSLGQRATISCRASKSVSASGYSYMHWYQQKPGQPPKLLIYLASNLESGVPARFSGSGSGTDFTLNIHPVEEEDAATYYCQHSRELPLTFGAGTKLELKR
notes: as for B1
As for B8, the binding result is on record as “binds” in test [1]; “binds” in test [2]; “binds” in test [3]; “no binding” in test [5]; “no binding” in test [4].

B9: M-hProtS-2F382A1 monoclonal antibody (antibody, mouse IgG1, V domains shown)
VH: EVKLEESGGGLVQPGGSMKLSCAASGFTFSDAWMGWVRQSPEKGLEWVAEIRGKANNHATYYSESVKGRFTISRDDSKSSVYLQMNSLRAEDTGIFYCCLITAFLFDYWGQGTTLTVSS
VL: QIVLTQSPAIMSASPGEKVTMTCSGRSSENYMYWYQQKPGSPPRLWIYDTSNLVSGVPARFSGSRSGTSYSLTISSMEAEDAATYYCQQFNGYPYTFGGGTKLEIRR
notes: as for B1
For B9, the binding result in test [1] is given as “binds”; in test [2], “binds”; in test [3], “binds”; in test [4] it was “no binding”.

B10: M-hProtS-6F128A2 monoclonal antibody (antibody, mouse IgG1, V domains shown)
VL: SIVMTQTPKFLLVSAGDRVTITCKASQSVSNDVAWYQQKPGQSPKLLIYYASNRYTGVPDRFTGSGYGTDFTFTISTVQAEDLAVYFCQQDYSSPYTFGGGTKLEIKR
V domain: QVQLQQPGAELVRPGASVKLSCKASGYTFTSYWINWVKQRPEQGLEWIGRIDPYDSETHYNQKFKDKAILTVDKSSSTAYMQLSSLTSEDSAVYYCARWGGSGYAMDYWGQGTSATVSS
notes: as for B4
Take B10: the binding result was “binds” in test [1], “binds” in test [2], “binds” in test [3] and “no binding” in test [4].

B11: M-hProtS-6F151A2 monoclonal antibody (antibody, mouse IgG1, V domains shown)
VH: EVQLQQSGAELVRSGASVKLSCTASGFNIKDNYIHWVKQRPEQGLEWIGWIDPENGDTEYAPKFQGKATMTADTSSNTAYLQLSSLTSEDTAVYYCSAYGAAYWGQGTLVTVSA
VL: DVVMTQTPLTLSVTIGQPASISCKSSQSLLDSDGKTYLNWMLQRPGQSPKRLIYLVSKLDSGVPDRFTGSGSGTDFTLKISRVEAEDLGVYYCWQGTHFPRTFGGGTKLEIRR
notes: as for B1
With B11, the binding result is “binds” in test [1], “binds” in test [2], “binds” in test [3] and “no binding” in test [4].
